# ± gives the uncertainty stated by the source.
# Assay: abundance fitness (aPCA) (normalised: wild type 0, dead -1); higher = more abundant; growth selection in yeast, the domain comes from the species named
# Conditions: Homo sapiens
row,Substance,abundance fitness
1,"E3 ubiquitin-protein ligase NEDD4-like D204A, Q96PU5",-0.392 ± 0.068
2,"E3 ubiquitin-protein ligase NEDD4-like D204C, Q96PU5",-0.151 ± 0.099
3,"E3 ubiquitin-protein ligase NEDD4-like D204E, Q96PU5",-0.505 ± 0.089
4,"E3 ubiquitin-protein ligase NEDD4-like D204G, Q96PU5",-0.491 ± 0.057
5,"E3 ubiquitin-protein ligase NEDD4-like D204H, Q96PU5",-0.684 ± 0.14
6,"E3 ubiquitin-protein ligase NEDD4-like D204I, Q96PU5",-1.04 ± 0.17
7,"E3 ubiquitin-protein ligase NEDD4-like D204K, Q96PU5",-0.894 ± 0.13
8,"E3 ubiquitin-protein ligase NEDD4-like D204L, Q96PU5",-0.803 ± 0.072
9,"E3 ubiquitin-protein ligase NEDD4-like D204M, Q96PU5",-0.751 ± 0.075
10,"E3 ubiquitin-protein ligase NEDD4-like D204N, Q96PU5",-0.451 ± 0.14
11,"E3 ubiquitin-protein ligase NEDD4-like D204P, Q96PU5",-0.897 ± 0.15
12,"E3 ubiquitin-protein ligase NEDD4-like D204Q, Q96PU5",-0.668 ± 0.077
13,"E3 ubiquitin-protein ligase NEDD4-like D204R, Q96PU5",-1.03 ± 0.062
14,"E3 ubiquitin-protein ligase NEDD4-like D204S, Q96PU5",-0.037 ± 0.064
15,"E3 ubiquitin-protein ligase NEDD4-like D204V, Q96PU5",-0.908 ± 0.074
16,"E3 ubiquitin-protein ligase NEDD4-like D204W, Q96PU5",-1.4 ± 0.12
17,"E3 ubiquitin-protein ligase NEDD4-like D228A, Q96PU5",-0.091 ± 0.07
18,"E3 ubiquitin-protein ligase NEDD4-like D228C, Q96PU5",-0.332 ± 0.067
19,"E3 ubiquitin-protein ligase NEDD4-like D228E, Q96PU5",0.062 ± 0.09
20,"E3 ubiquitin-protein ligase NEDD4-like D228F, Q96PU5",-0.329 ± 0.11
21,"E3 ubiquitin-protein ligase NEDD4-like D228G, Q96PU5",0.031 ± 0.056
22,"E3 ubiquitin-protein ligase NEDD4-like D228H, Q96PU5",0.122 ± 0.079
23,"E3 ubiquitin-protein ligase NEDD4-like D228I, Q96PU5",-0.474 ± 0.12
24,"E3 ubiquitin-protein ligase NEDD4-like D228K, Q96PU5",-0.002 ± 0.079

row,Substance,abundance fitness
1,"E3 ubiquitin-protein ligase NEDD4-like D228L, Q96PU5",-0.14 ± 0.062
2,"E3 ubiquitin-protein ligase NEDD4-like D228M, Q96PU5",-0.175 ± 0.099
3,"E3 ubiquitin-protein ligase NEDD4-like D228N, Q96PU5",0.063 ± 0.097
4,"E3 ubiquitin-protein ligase NEDD4-like D228P, Q96PU5",0.099 ± 0.07
5,"E3 ubiquitin-protein ligase NEDD4-like D228Q, Q96PU5",-0.277 ± 0.085
6,"E3 ubiquitin-protein ligase NEDD4-like D228R, Q96PU5",-0.101 ± 0.061
7,"E3 ubiquitin-protein ligase NEDD4-like D228S, Q96PU5",-0.053 ± 0.059
8,"E3 ubiquitin-protein ligase NEDD4-like D228T, Q96PU5",0.042 ± 0.076
9,"E3 ubiquitin-protein ligase NEDD4-like D228V, Q96PU5",-0.159 ± 0.071
10,"E3 ubiquitin-protein ligase NEDD4-like D228W, Q96PU5",-0.419 ± 0.064
11,"E3 ubiquitin-protein ligase NEDD4-like E188A, Q96PU5",-0.854 ± 0.29
12,"E3 ubiquitin-protein ligase NEDD4-like E188G, Q96PU5",-1.07 ± 0.49
13,"E3 ubiquitin-protein ligase NEDD4-like E188L, Q96PU5",-0.459 ± 0.28
14,"E3 ubiquitin-protein ligase NEDD4-like E188S, Q96PU5",0.089 ± 0.22
15,"E3 ubiquitin-protein ligase NEDD4-like E188V, Q96PU5",0.297 ± 0.2
16,"E3 ubiquitin-protein ligase NEDD4-like E189A, Q96PU5",-0.356 ± 0.065
17,"E3 ubiquitin-protein ligase NEDD4-like E189C, Q96PU5",-0.176 ± 0.062
18,"E3 ubiquitin-protein ligase NEDD4-like E189D, Q96PU5",-0.189 ± 0.093
19,"E3 ubiquitin-protein ligase NEDD4-like E189G, Q96PU5",-0.241 ± 0.058
20,"E3 ubiquitin-protein ligase NEDD4-like E189H, Q96PU5",-0.242 ± 0.13
21,"E3 ubiquitin-protein ligase NEDD4-like E189I, Q96PU5",0.107 ± 0.13
22,"E3 ubiquitin-protein ligase NEDD4-like E189K, Q96PU5",-0.026 ± 0.082
23,"E3 ubiquitin-protein ligase NEDD4-like E189L, Q96PU5",-0.278 ± 0.065
24,"E3 ubiquitin-protein ligase NEDD4-like E189M, Q96PU5",-0.477 ± 0.081

row,Substance,abundance fitness
1,"E3 ubiquitin-protein ligase NEDD4-like E189N, Q96PU5",0.222 ± 0.095
2,"E3 ubiquitin-protein ligase NEDD4-like E189P, Q96PU5",-0.384 ± 0.093
3,"E3 ubiquitin-protein ligase NEDD4-like E189Q, Q96PU5",-0.062 ± 0.097
4,"E3 ubiquitin-protein ligase NEDD4-like E189R, Q96PU5",-0.23 ± 0.055
5,"E3 ubiquitin-protein ligase NEDD4-like E189S, Q96PU5",-0.136 ± 0.065
6,"E3 ubiquitin-protein ligase NEDD4-like E189T, Q96PU5",-0.087 ± 0.077
7,"E3 ubiquitin-protein ligase NEDD4-like E189V, Q96PU5",-0.267 ± 0.069
8,"E3 ubiquitin-protein ligase NEDD4-like E189W, Q96PU5",-0.56 ± 0.065
9,"E3 ubiquitin-protein ligase NEDD4-like E189Y, Q96PU5",0.16 ± 0.1
10,"E3 ubiquitin-protein ligase NEDD4-like E200A, Q96PU5",-0.105 ± 0.062
11,"E3 ubiquitin-protein ligase NEDD4-like E200C, Q96PU5",-0.092 ± 0.08
12,"E3 ubiquitin-protein ligase NEDD4-like E200D, Q96PU5",-0.346 ± 0.081
13,"E3 ubiquitin-protein ligase NEDD4-like E200F, Q96PU5",-0.328 ± 0.083
14,"E3 ubiquitin-protein ligase NEDD4-like E200G, Q96PU5",-0.299 ± 0.059
15,"E3 ubiquitin-protein ligase NEDD4-like E200H, Q96PU5",-0.721 ± 0.18
16,"E3 ubiquitin-protein ligase NEDD4-like E200K, Q96PU5",-0.161 ± 0.062
17,"E3 ubiquitin-protein ligase NEDD4-like E200L, Q96PU5",-0.266 ± 0.08
18,"E3 ubiquitin-protein ligase NEDD4-like E200M, Q96PU5",-0.152 ± 0.074
19,"E3 ubiquitin-protein ligase NEDD4-like E200N, Q96PU5",-0.471 ± 0.13
20,"E3 ubiquitin-protein ligase NEDD4-like E200P, Q96PU5",-1.29 ± 0.2
21,"E3 ubiquitin-protein ligase NEDD4-like E200Q, Q96PU5",-0.072 ± 0.11
22,"E3 ubiquitin-protein ligase NEDD4-like E200R, Q96PU5",-0.31 ± 0.065
23,"E3 ubiquitin-protein ligase NEDD4-like E200S, Q96PU5",-0.166 ± 0.077
24,"E3 ubiquitin-protein ligase NEDD4-like E200T, Q96PU5",-0.138 ± 0.081

row,Substance,abundance fitness
1,"E3 ubiquitin-protein ligase NEDD4-like E200V, Q96PU5",-0.179 ± 0.084
2,"E3 ubiquitin-protein ligase NEDD4-like E200W, Q96PU5",-0.603 ± 0.069
3,"E3 ubiquitin-protein ligase NEDD4-like E200Y, Q96PU5",-0.357 ± 0.072
4,"E3 ubiquitin-protein ligase NEDD4-like E201A, Q96PU5",-0.1 ± 0.066
5,"E3 ubiquitin-protein ligase NEDD4-like E201C, Q96PU5",-0.084 ± 0.09
6,"E3 ubiquitin-protein ligase NEDD4-like E201F, Q96PU5",-0.412 ± 0.14
7,"E3 ubiquitin-protein ligase NEDD4-like E201G, Q96PU5",-0.282 ± 0.05
8,"E3 ubiquitin-protein ligase NEDD4-like E201H, Q96PU5",-0.223 ± 0.13
9,"E3 ubiquitin-protein ligase NEDD4-like E201L, Q96PU5",-0.257 ± 0.061
10,"E3 ubiquitin-protein ligase NEDD4-like E201M, Q96PU5",-0.066 ± 0.11
11,"E3 ubiquitin-protein ligase NEDD4-like E201N, Q96PU5",-0.212 ± 0.06
12,"E3 ubiquitin-protein ligase NEDD4-like E201P, Q96PU5",-0.255 ± 0.091
13,"E3 ubiquitin-protein ligase NEDD4-like E201Q, Q96PU5",-0.228 ± 0.12
14,"E3 ubiquitin-protein ligase NEDD4-like E201R, Q96PU5",-0.209 ± 0.057
15,"E3 ubiquitin-protein ligase NEDD4-like E201S, Q96PU5",-0.124 ± 0.061
16,"E3 ubiquitin-protein ligase NEDD4-like E201T, Q96PU5",-0.098 ± 0.1
17,"E3 ubiquitin-protein ligase NEDD4-like E201V, Q96PU5",-0.14 ± 0.052
18,"E3 ubiquitin-protein ligase NEDD4-like E201W, Q96PU5",-0.423 ± 0.065
19,"E3 ubiquitin-protein ligase NEDD4-like E201Y, Q96PU5",-0.278 ± 0.056
20,"E3 ubiquitin-protein ligase NEDD4-like E232A, Q96PU5",-0.173 ± 0.11
21,"E3 ubiquitin-protein ligase NEDD4-like E232D, Q96PU5",-0.354 ± 0.12
22,"E3 ubiquitin-protein ligase NEDD4-like E232G, Q96PU5",-0.287 ± 0.12
23,"E3 ubiquitin-protein ligase NEDD4-like E232H, Q96PU5",-0.574 ± 0.18

# — the Human Domainome abundance scans (Beltran et al. 2025)
